{"source": "patent US7309594", "tested_on": "Protein Kinase Bα/AKT1 catalytic domain (SEQ ID NO:3, tag removed) before PDK1 treatment", "sequence (chain, as listed by the source)": "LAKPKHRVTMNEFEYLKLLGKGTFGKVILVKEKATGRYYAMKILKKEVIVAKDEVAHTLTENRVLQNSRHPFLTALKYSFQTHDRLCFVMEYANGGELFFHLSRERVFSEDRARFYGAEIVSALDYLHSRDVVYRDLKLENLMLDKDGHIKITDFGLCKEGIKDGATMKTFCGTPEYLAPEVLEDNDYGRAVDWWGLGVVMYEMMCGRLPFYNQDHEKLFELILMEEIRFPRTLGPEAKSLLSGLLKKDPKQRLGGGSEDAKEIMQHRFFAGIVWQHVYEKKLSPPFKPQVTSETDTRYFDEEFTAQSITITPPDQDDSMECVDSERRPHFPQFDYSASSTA"}
{"substance": "PDK1 kinase", "values": [{"measurement": "phosphorylation of AKT1 (mass spectrometry)", "result": "Following 120 minute incubation with PDK1, AKT1 was converted into a mixture of mono and double phosphorylated proteins"}]}
